Measured values: article PMC12431651

How the values were obtained:
Assay in all cases: ITC; MED25 ACID (200 or 250 µM, syringe) titrated into NS1 (20 µM, cell); 20 mM Tris pH 8.0, 200 mM NaCl, 1 mM TCEP, 25°C; one set of sites model
[1] = target: NS1 I54A (human respiratory syncytial virus subgroup A, Long strain)
[2] = target: NS1 Y125A (human respiratory syncytial virus subgroup A, Long strain)
[3] = target: NS1 L133A (human respiratory syncytial virus subgroup A, Long strain)
[4] = target: RSV NS1, full-length wild type (aa 1–139) (human respiratory syncytial virus subgroup A, Long strain)
[5] = target: NS1 M122A (human respiratory syncytial virus subgroup A, Long strain)
[6] = target: NS1 K112A (human respiratory syncytial virus subgroup A, Long strain)
[7] = target: NS1 E110A (human respiratory syncytial virus subgroup A, Long strain)
[8] = target: NS1 F56A (human respiratory syncytial virus subgroup A, Long strain)

B1: MED25 ACID (aa 389–543) (domain or fragment)
chain: LGGQQSVSNKLLAWSGVLEWQEKPKPASVDANTKLTRSLPCQVYVNHGENLKTEQWPQKLIMQLIPQQLLTTLGPLFRNSRMVQFHFTNKDLESLKGLYRIMGNGFAGCVHFPHTAPCEVRVLMLLYSSKKKIFMGLIPYDQSGFVNGIRQVITN
**Q.** For B1, which Kd [1] is on record?
**A.** 45 nM

**Q.** And the dH [1]?
**A.** -10.7 kcal/mol

**Q.** What about the stoichiometry N [1] of the same binder?
**A.** 0.79

**Q.** What about the Kd [2] of the same binder?
**A.** 80 nM

**Q.** And the dH [2]?
**A.** -11.9 kcal/mol

**Q.** What about the stoichiometry N [2] of the same binder?
**A.** 0.53

**Q.** What about the Kd [3] of the same binder?
**A.** 2230 nM

**Q.** What about the dH [3] of the same binder?
**A.** -7.6 kcal/mol

**Q.** What about the stoichiometry N [3] of the same binder?
**A.** 0.44

**Q.** What about the Kd [4] of the same binder?
**A.** 44 nM

**Q.** And the dH [4]?
**A.** -10.1 kcal/mol

**Q.** What about the stoichiometry N [4] of the same binder?
**A.** 0.73

**Q.** What about the Kd [5] of the same binder?
**A.** 606 nM

**Q.** What about the dH [5] of the same binder?
**A.** -10.4 kcal/mol

**Q.** And the stoichiometry N [5]?
**A.** 0.71

**Q.** And the Kd [6]?
**A.** 79 nM

**Q.** And the dH [6]?
**A.** -10.7 kcal/mol

**Q.** And the stoichiometry N [6]?
**A.** 0.66

**Q.** And the Kd [7]?
**A.** 1540 nM

**Q.** And the dH [7]?
**A.** -7.7 kcal/mol

**Q.** What about the stoichiometry N [7] of the same binder?
**A.** 0.86

**Q.** What about the Kd [8] of the same binder?
**A.** 198 nM

**Q.** And the dH [8]?
**A.** -8.3 kcal/mol

**Q.** What about the stoichiometry N [8] of the same binder?
**A.** 0.8
